Target: T. laurifolia Δ6-18:0-ACP desaturase, N-11 truncation (Thunbergia laurifolia)
Assay: crystal structure

stoichiometry N: 2
Substance: T. laurifolia Δ6-18:0-ACP desaturase, N-11 truncation (enzyme)
